Data as given in patent US9701733B2, “Maspin-based treatment of cancer” (Northwestern University, priority 2011, dated 2017).
Numbering of substitutions follows the chain as printed. Numbers in names are those of the source. Entries after “also recorded” stand apart in the source; their conditions may differ.

B1: single mutant (E201K): GST-maspin point mutant E201K (protein, UniProt P36952 1-375, looked up, variant E201K)
Serpin B5: MDALQLANSAFAVDLFKQLCEKEPLGNVLFSPICLSTSLSLAQVGAKGDTANEIGQVLHFENVKDVPFGFQTVTSDVNKLSSFYSLKLIKRLYVDKSLNLSTEFISSTKRPYAKELETVDFKDKLEETKGQINNSIKDLTDGHFENILADNSVNDQTKILVVNAAYFVGKWMKKFSESETKECPFRVNKTDTKPVQMMNMKATFCMGNIDSINCKIIELPFQNKHLSMFILLPKDVEDESTGLEKIEKQLNSESLSQWTNPSTMANAKVKLSIPKFKVEKMIDPKACLENLGLKHIFSEDTSDFSGMSETKGVALSNVIHKVCLEITEDGGDSIEVPGARILQHKDELNADHPFIYIIRHNKTRNIIFFGKFCSP
modifications: GST tag
B2: double mutant (K268E, K270E): GST-maspin mutant K268E, K270E (protein, UniProt P36952 1-375, looked up, variant K268E K270E)
Serpin B5: B1 Serpin B5 with K201E, K268E, K270E
modifications: GST fusion
B3: triple mutant (E201K, K268E, K270E): GST-maspin mutant E201K, K268E, K270E (protein, UniProt P36952 1-375, looked up, variant E201K K268E K270E)
Serpin B5: B1 Serpin B5 with K268E, K270E
modifications: GST fusion
B4: GST-maspin: Glutathione S-transferase (GST)-tagged recombinant wild-type maspin; 125I-labeled for binding assay (protein, UniProt P36952 1-375, looked up)
Serpin B5: B1 Serpin B5 with K201E
modifications: GST tag; 125I label

Key:
MCF10A cells = assay: Adhesion assay of MCF10A cells on self-deposited (endogenous) matrix; assay type: cell-based, human; conditions: for effect of maspin-derived competitive peptide on MCF10A cell adhesion: cells pre-incubated with peptide, adhesion measured after 30 min, self-deposited matrix; for effect of GST-maspin mutant on MCF10A cell adhesion: compared to wild-type GST-maspin; for effect of GST-maspin mutant on MCF10A cell adhesion / reduction of MCF10A cell adhesion compared to WT GST-maspin: endogenous matrix; for reduction of MCF10A cell adhesion compared to WT GST-maspin: recombinant protein
Description: Assays utilizing endogenous ECM proteins generated by MCF10A cells were performed as previously described (Langhofer et al. (1993) J Cell Sci 105 (Pt 3), 753-764; herein incorporated by reference in its entirety). MCF10A cells were plated in 96-well dishes and allowed to reach confluence. Cells were washed with PBS and treated for 5 min with fresh sterile 20 mM NH4OH, followed by extensive water washes. Wells were blocked with heat-denatured BSA (10 mg/ml) for 1 hr at room temperature. Subconfluent cultures were trypsinized, washed with 37° C. serum-free DMEM/F12 medium, and incubated with either antibodies or recombinant proteins (500 nM) for 30 min at 37° C. (when assaying endogenous maspin enzyme-free cell dissociation solution was used instead of trypsin). In all assays, 2.0×10^4 cells were plated in triplicates and allowed to adhere for 30 min at 37° C. The GST protein was used as a control. Wells were washed with 37° C. serum-free DMEM/F12 and adhered cells were fixed with 5% gluteraldehyde and stained with crystal violet dye. Cell adhesion was determined by the reading at 590 nm subtracted by the blank value (determined by BSA-coated wells, 5% of maximal cell adhesion). Cell adhesion was plotted as percentage of the corresponding control value. Cell surface stripping of uPA from uPAR was conducted as previously described (Stoppelli et al. (1986) Cell 45, 675-684; herein incorporated by reference in its entirety). Subconfluent cultures were washed twice with DMEM/F12 supplemented with 20 mM HEPES and 1 mg/ml BSA. Then, cells were incubated with 50 mM glycine-HCl (pH 3.0) with 100 mM NaCl at 25° C. for 2 min and the reaction was halted by neutralizing with 500 mM HEPES (pH 7.4). In the function blocking studies, cells were first incubated with the function blocking antiuPAR or control rabbit IgG for 10 min, uPA and recombinant GST-maspin was added for another 20 min.

HUVEC endothelial cells = assay: HUVEC tube formation assay on MatriGel; assay type: cell-based; conditions: for effect on HUVEC tube formation: 1.0 uM; for potency on tube angiogenesis: compared to the G-Helix peptide or GST-maspin (FIG. 7)
Description: HUVECs were plated on MatriGel for tube formation assay. Various peptides were tested for the potency on tube angiogenesis.
HUVEC endothelial cells were used to test the effect of synthetic maspin peptides on HUVEC tube formation assay in cell culture systems. Random peptide was used as a negative control and maspin G-helix peptide as a positive control. G-Helix was previously found to be effective in inhibiting endothelial cell migration, thereby mimicking maspin effect against angiogenesis. […] At 1.0 uM, G-helix was not effective.

WT MEF cell surface = assay: 125I-GST-maspin binding to wild type MEF cell surface; set-up: species or system mouse; conditions: WT MEFs; 4° C., 90 min; <500 nM
Description: (§1) Bacterial recombinant GST-maspin was labeled with ^125I as described previously (Conlon, M. (2002) Preparation of ^125I-Labeled Peptides and Proteins with High Specific Activity using IODO-GEN, 2nd Edition Ed. The Protein Protocols Handbook (Walker, J. M., Ed.), Humana Press Inc, Totowa, N.J.; herein incorporated by reference in its entirety). Wild type (WT) and uPAR−/− mouse embryo fibroblasts (MEFs) (5.0×10^4 cells) were cultured in DMEM with 10% FBS on 96-well plate overnight. Cells were chilled on ice for 30 min, washed three times with ice-cold DMEM, and then blocked on ice for 60 min using blocking buffer (DMEM containing 5% heat inactivated BSA). MEFs were incubated with increasing concentrations of ^125I-GST-maspin in blocking buffer at 4° C. for 90 min. After incubation, unbound ^125I-GST-maspin protein was removed by washing three times with blocking buffer. Specific ^125I-GST-maspin binding was determined by subtracting the detected radioactivity by the nonspecific binding (determined in the presence of a 50-fold excess of non-labeled GST-maspin). In the studies evaluating the uPA/uPAR interactions, ^125I-GST-maspin was treated with ABS4A and S-20 (Santa Cruz) antibodies, which block the RCL and N-terminal domains, prior to adding to WT MEF cells. In one set, WT MEF cells were treated with an anti-mouse uPAR antibody (R&D), which blocks uPA binding to uPAR. […]

uPAR-/- MEFs = assay: 125I-GST-maspin binding to uPAR-/- MEF cell surface; set-up: species or system mouse; conditions: 4° C., 90 min, <500 nM
Description: as §1

Molecule	effect of maspin-derived competitive peptide on MCF10A cell adhesion (MCF10A cells)	effect of GST-maspin mutant on MCF10A cell adhesion (MCF10A cells)	reduction of MCF10A cell adhesion compared to WT GST-maspin (MCF10A cells)	further results
NPSTMANAKVKLSIPK (listed as Homo sapiens) [peptide 260-275]	inhibited cell adhesion	–	–	effect of maspin-derived competitive peptide on MCF10A cell adhesion (MCF10A cells; listed as 260-275 peptide): reduced
STANAKVKLSIP (listed as Homo sapiens) [peptide X, synthetic maspin mimetic peptide]	–	–	–	effect on HUVEC tube formation (HUVEC endothelial cells): highly effective; potency on tube angiogenesis (HUVEC endothelial cells): highly potent
TANAEVKLSIPK (listed as Homo sapiens) [peptide Y, synthetic maspin mimetic peptide]	–	–	–	effect on HUVEC tube formation (HUVEC endothelial cells): highly effective; potency on tube angiogenesis (HUVEC endothelial cells): highly potent
TDTKPVQMMNMEATFCMGNIDSI (listed as Homo sapiens) [190-211]	inhibited cell adhesion; also recorded: competed with GST-maspin	–	–	–
peptide 169-189: peptide corresponding to maspin residues 169-189 (s3C) (GKWMKKFSESETKECPFRVNK; UniProt P36952 169-189, looked up, fragment)	not s3C (peptide 169-189) was important	–	–	–
peptide 181-202: competitive peptide corresponding to maspin amino acid residues 181-202 (KECPFRVNKTDTKPVQMMNMEA; UniProt P36952 181-202, looked up, fragment)	inhibited cell adhesion; also recorded: competed with GST-maspin	–	–	–
B1	–	inhibited cell adhesion; also recorded: significantly reduced	16%	–
B2	–	inhibited cell adhesion	17%	effect of GST-maspin mutant on MCF10A cell adhesion (MCF10A cells; listed as double mutant GST maspin (K268E, K270E)): reduced
B3	–	inhibited cell adhesion	approximately 28%	–
B4	–	–	–	specific 125I-GST-maspin binding to cell surface (WT MEF cell surface): displayed specific 125I-GST-maspin binding; maspin-induced MCF10A cell adhesion after stripping endogenous uPA (MCF10A cells; endogenous uPA acid-stripped before GST-maspin): substantially blocks; maspin-mediated adhesion of uPA-stripped MCF10A cells after addition of exogenous uPA (MCF10A cells; uPA acid-stripped, exogenous uPA 800 nM): 154.06 % of GST control; specific 125I-GST-maspin binding to cell surface (uPAR-/- MEFs): absent of any specific 125I-GST-maspin binding
